Assay results as given in PMC6922461 (PLoS Biology, 2019).

What was measured:
[1] = target: Strep-Tactin-SpyCatcherΔ subunit; assay: refolding of mixed subunits, anion exchange chromatography, SDS-PAGE densitometry; subunits from washed inclusion bodies mixed at 3:1, refolded by rapid dilution, tetramers separated on Mono Q; boiled peak samples on reducing SDS-PAGE, bands normalised for molecular weight and converted to a subunit ratio; settings: both partners purified
[2] = target: the molecule itself; assay: as above

Chain of Strep-Tactin-SpyCatcherΔ subunit (chain, as listed by the source mutant): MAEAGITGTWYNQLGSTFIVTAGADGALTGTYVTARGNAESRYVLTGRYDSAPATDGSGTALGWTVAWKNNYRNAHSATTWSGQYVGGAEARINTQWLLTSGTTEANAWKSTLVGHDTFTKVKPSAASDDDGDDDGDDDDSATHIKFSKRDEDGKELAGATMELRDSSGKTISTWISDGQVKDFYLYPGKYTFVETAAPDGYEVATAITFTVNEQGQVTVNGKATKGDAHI

B1: dead streptavidin subunit (other)
chain: MAEAGITGTWYAQLGDTFIVTAGADGALTGTYEAAVGNAESRYVLTGRYDSAPATDGSGTALGWTVAWKNNYRNAHSATTWSGQYVGGAEARINTQWLLTSGTTEANAWKSTLVGHDTFTKVKPSAAS
notes: also called dead streptavidin monomer
- stoichiometry N [1]: 3.7 dead streptavidin per Strep-Tactin-SpyCatcherΔ
- binding result [2]: binds
